# How the values were obtained:
# Experiment in all cases: NMR
# Conditions in all cases: 308 K; not stated (50 mM buffer); 50 mM MES, MOPS, HEPES, TRIS/HCl or CAPS; zinc-loaded, inhibitor-free, folded
# [1] = target: His119 (UniProt position 119, YAAELHLVHWN)
# [2] = target: His107 (UniProt position 107, GQGSEHTVDKK)
# [3] = target: His96 (UniProt position 96, IQFHFHWGSLD)
substance,measurement,setting,value
"Carbonic anhydrase II (HCAII), wild type (Homo sapiens)",pKa,[1],"<5.1 (not titrating in the studied pH range, 5.1-9.9)"
same,pKa,[2],"<5.1 (not titrating in the studied pH range, 5.1-9.9)"
same,pKa,[3],"<5.1 (not titrating in the studied pH range, 5.1-9.9)"
